These results are taken from publication PMC2679143 (PLoS ONE, 2009).

For series [1], the target named is cycle inhibiting factor (Cif) from enteropathogenic Escherichia coli (EPEC) (enteropathogenic Escherichia coli (EPEC)). Put plainly: SEC. In general terms: In gel filtration, larger molecules generally elute earlier.
The series “SEC” deals with the molecule itself. Put plainly: SEC.

Turning to “cycle inhibiting factor (Cif) from enteropathogenic Escherichia coli (EPEC) (natural protein)”, in series [1], the stoichiometry N is 2.

B1: Cif from Photorhabdus asymbiotica (natural protein)
chain: MMREYSKEDDCVKEKTNLAESENVEADNYLEMDCLNYLAKLNGMPERKDHSLNSTKLIDDIIKLHNDRKGNKLLWNDNWQDKIIDRDLESIFKKIDEMVSEFGGIEIYKDIVGENPYDPTEPVCGYSAQNIFKLMTEGEHAVDPVKMAQTGKINGNEFAEKLEQLNSSNNYVALINDHRLGHMFLVDIPSTNREKVGYIYQSDLGDGALPALKIADWLKSRGKESINVNKLKKFLSNEFTMLSESEQKELIAEIFDINKDIANVKLGKIKKDKAVDVYLREYDLNDFISNIEKLKTKLV
notes: also called CifPa; P. asymbiotica Cif; source: E. coli BL21(DE3) or B834(DE3), pET28a, purified (Ni2+-IMAC, Superdex 75)
On to B1, for which the “stoichiometry N” value in “SEC” came out at 2.

B2: Cif from Photorhabdus luminescens (natural protein)
chain: SKFKKNSINTIKLIDDIIALHNDPKGNKLLWNDNWQDKIINRDLANIFEKIDESVSELGGLEMYQEMVGVNPYDPTEPVCGLSAQNIFKLMTEGEHAVDPVEMAQTGKIDGNEFAESVDQLSSAKNYVALVNDRRLGHMFLIDIPSNDQETVGYIYQSDLGQGALPPLKIADWLNSRGKDAVSLNKLKKLLSREFNLLSDDEKRALISETLDIHKDVSNVELDRIKRDRGVDIYLTEYDVNNFYENIETLKSKLSNYDKKLSKPK
notes: also called CifPl; source: E. coli BL21(DE3) or B834(DE3), pET28a, purified (Ni2+-IMAC, Superdex 75)
Take B2: in the series “SEC”, the “stoichiometry N” value stood at 2.

For orientation: stoichiometry N means the number of molecules, sites or subunits per partner or assembly.
